For the data set, the target named is rabbit skeletal muscle actin protein (Cytoskeleton, Denver, Colo., Catalog #AKL99-A), P68135.

B1: recombinant wild-type human DNase1 (protein)
chain: LKIAAFNIQTFGETKMSNATLVSYIVQILSRYDIALVQEVRDSHLTAVGKLLDNLNQDAPDTYHYVVSEPLGRNSYKERYLFVYRPDQVSAVDSYYYDDGCEPCGNDTFNREPAIVRFFSRFTEVREFAIVPLHAAPGDAVAEIDALYDVYLDVQEKWGLEDVMLMGDFNAGCSYVRPSQWSSIRLWTSPTFQWLIPDSADTTATPTHCAYDRIVVAGMLLRGAVVPDSALPFNFQAAYGLSDQLAQAISDHYPVEVMLK
Turning to B1, the “nuclease activity, SYTOX Green fluorescence assay (RFU over time), 4.5 nM enzyme with or without 40 ug/ml actin” value is “The nuclease activity of the recombinant human DNase1 was inhibited by actin”.

Values taken from patent US20230015291.
